The text below walks through data of article PMC3930447.

The target in this assay is GST-Dip1 (S. pombe) (S. pombe) (UniProt O74771). Kind of assay: pull-down.
UniProt O74771, sequence (O74771 whole entry): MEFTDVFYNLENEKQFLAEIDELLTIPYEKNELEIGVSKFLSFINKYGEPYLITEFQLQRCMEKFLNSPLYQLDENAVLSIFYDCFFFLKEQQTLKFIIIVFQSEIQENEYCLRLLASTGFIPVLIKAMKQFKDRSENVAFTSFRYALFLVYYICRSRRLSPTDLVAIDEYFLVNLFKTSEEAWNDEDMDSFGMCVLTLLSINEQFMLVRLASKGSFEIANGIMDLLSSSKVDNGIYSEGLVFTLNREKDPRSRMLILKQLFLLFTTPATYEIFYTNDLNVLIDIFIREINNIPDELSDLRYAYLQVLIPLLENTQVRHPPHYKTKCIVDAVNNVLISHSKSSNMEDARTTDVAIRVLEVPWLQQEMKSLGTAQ

Turning to “S. pombe Arp2/3 complex (from UniProt Q9UUJ1 1-390)”, the percent pulled down turned out to be 20%.
